According to US20220017616A1 (Amgen, published 2022):
Positions count from the first letter of the chain named. Values joined by “and” are separate entries in the source; they are usually repeats but may differ in a detail not shown here. Identical values can stand only once.

T1: human CD155 on cells (human, UniProt P15151 21-417)
T1 construct: whole, on cells; also called huCD155
T1 sequence (looked up): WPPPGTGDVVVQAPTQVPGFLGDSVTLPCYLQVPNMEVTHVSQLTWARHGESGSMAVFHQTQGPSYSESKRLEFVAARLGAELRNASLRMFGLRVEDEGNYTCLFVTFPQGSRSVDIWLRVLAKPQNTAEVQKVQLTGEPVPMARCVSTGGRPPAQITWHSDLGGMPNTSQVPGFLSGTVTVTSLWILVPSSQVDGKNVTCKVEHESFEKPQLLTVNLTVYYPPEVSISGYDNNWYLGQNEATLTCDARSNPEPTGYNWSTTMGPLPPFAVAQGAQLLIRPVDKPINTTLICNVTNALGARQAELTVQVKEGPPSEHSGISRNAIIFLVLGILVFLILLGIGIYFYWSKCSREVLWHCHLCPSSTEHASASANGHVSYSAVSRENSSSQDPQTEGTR

T2: human TIGIT (human, UniProt Q495A1 22-244)
T2 construct: Cell-surface form; also called huTIGIT
T2 sequence: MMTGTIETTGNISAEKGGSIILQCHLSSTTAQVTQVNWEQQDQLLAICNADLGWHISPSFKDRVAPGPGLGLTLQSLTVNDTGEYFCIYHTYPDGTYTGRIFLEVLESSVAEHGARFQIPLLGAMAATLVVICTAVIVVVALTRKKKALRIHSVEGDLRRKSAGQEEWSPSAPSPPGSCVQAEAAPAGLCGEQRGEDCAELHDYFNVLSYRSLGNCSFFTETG

T3: huTIGIT (PL44403) (human, UniProt Q495A1 22-141)
T3 construct: Soluble protein; also called Human TIGIT (Octet analyte, mono-Fc tag)
T3 sequence: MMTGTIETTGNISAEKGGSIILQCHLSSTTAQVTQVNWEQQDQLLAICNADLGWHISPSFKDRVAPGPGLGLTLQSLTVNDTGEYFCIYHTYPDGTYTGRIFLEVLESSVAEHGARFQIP

T4: human CD112R expressed on CHO K1 cells (pMSCV_FLAG_human CD112R (N81D)(41-326)_IRES_EGFP) (human, UniProt Q6DKI7 41-326)
T4 construct: also called huCD112R; human CD112R expressed on CHO cells; not shown: FLAG tag named in the vector
T4 sequence: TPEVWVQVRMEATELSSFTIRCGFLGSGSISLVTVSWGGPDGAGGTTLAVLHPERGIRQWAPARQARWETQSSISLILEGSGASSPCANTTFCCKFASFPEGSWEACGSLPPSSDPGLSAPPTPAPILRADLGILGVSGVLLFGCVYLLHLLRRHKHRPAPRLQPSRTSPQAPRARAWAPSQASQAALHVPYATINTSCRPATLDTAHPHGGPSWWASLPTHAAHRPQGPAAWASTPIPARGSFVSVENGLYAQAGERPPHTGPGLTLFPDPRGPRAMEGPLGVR

B1: human CD226-Fc (Fc fusion, UniProt Q15762 19-247, looked up, not shown: a dimerising Fc or GST)
chain: EEVLWHTSVPFAENMSLECVYPSMGILTQVEWFKIGTQQDSIAIFSPTHGMVIRKPYAERVYFLNSTMASNNMTLFFRNASEDDVGYYSCSLYTYPQGTWQKVIQVVQSDSFEAAVPSNSHIVSEPGKNVTLTCQPQMTWPVQAVRWEKIQPRQIDLLTYCNLVHGRNFTSKFPRQIVSNCSHGRWSVIVIPDVTVSDSGLYRCYLQASAGENETFVMRLTVAEGKTDN
notes: also called huCD226; CD226-Fc (R&D, 666-DN)
B2: 11A3 (antibody, V domains shown)
VH: QVQLVQSGAEVKKPGASVKVSCKASGYTFTSYYIHWVRQAPGQGLEWMGIINPSGGRTSYAQMFQGRVTLTRDTSTNTVYMELSSLRSEDTAVFYCAKDREEQWPVGGFDYWGQGTLVTVSS
VL: DIQMTQSPSSLSASVGDRVTITCRASQNIRRYLNWYQQKPGKAPELLIYSASNLQNGVPSRFSGSGSGTDFTLTISSLQPEDFATYYCQQSYIIPPTFGQGTKVEIRR
notes: Fully human XenoMouse antibody, tested as hybridoma supernatant or purified mAb
B3: 28B8 (antibody, V domains shown)
VH: QVQLQESGPGLVKPSETLFLTCTVSGGSVTNYYWSWIRQPAGKGLEWIGRIYTSGSTYYNPSLKSRVTMSLDTSKNQFSLRLSSVTAADTAVYYCAREGFTMVRGVMGAFDIWGQGTMVTVSS
VL: B2 VL with N28S, K39I, E45K, L46F, S50D, N53S, N56S, I93S, I94T, R107K
notes: as for B2
B4: 43B7 (antibody, V domains shown)
VH: QVQLQESGPGLVKPSQTLSLTCTVSGGSISSGGYYWSWIRQHPGKGLEWIGYIYYRGGTYYNPSLRSRVTMSVDTSKNQFSLMLSSVTAADTAVYYCARTIFGVIILDNWGQGTPVTVSS
VL: DIQMTQSPSSLSASVGDRVTITCRSSQSISSYLNWYQQKPGRAPKLLIHAASSLQSGVPSRFSGSGSGTDFTLTISSLQPEDFASYCCQQSYTTPPTFGGGTKVEIKR
notes: as for B2
B5: human CD112-Fc (Fc fusion, UniProt Q92692 32-360, looked up, not shown: a dimerising Fc or GST)
chain: QDVRVQVLPEVRGQLGGTVELPCHLLPPVPGLYISLVTWQRPDAPANHQNVAAFHPKMGPSFPSPKPGSERLSFVSAKQSTGQDTEAELQDATLALHGLTVEDEGNYTCEFATFPKGSVRGMTWLRVIAKPKNQAEAQKVTFSQDPTTVALCISKEGRPPARISWLSSLDWEAKETQVSGTLAGTVTVTSRFTLVPSGRADGVTVTCKVEHESFEEPALIPVTLSVRYPPEVSISGYDDNWYLGRTDATLSCDVRSNPEPTGYDWSTTSGTFPTSAVAQGSQLVIHAVDSLFNTTFVCTVTNAVGMGRAEQVIFVRETPNTAGAGATGG
notes: treated as the same reagent; also called Human CD112 Ligand; CD112 ligand

Legend:
human CD155 on cells = biological target: T1, human CD155 on cells; experiment: flow cytometry, CD226-Fc at 10 ug/mL on mock-transfected 293T cells
Description: In the presence of tool TIGIT antibodies, TIGIT expressed by TIGIT-293 cells is bound by tool antibodies and is blocked from binding to CD155, thereby allowing CD226 to interact with CD155. […] Cells were washed 1× with FACS Buffer and resuspended in FACS buffer. Samples were analyzed using a BD Accuri™ Flow Cytometer and an Intellicyt HyperCyt autoSampler.

human TIGIT [1] = biological target: T2, human TIGIT; experiment: flow cytometry, 1 µg/mL on activated primary human T cells, fold over isotype control
Description: (§1) The binding of hybridoma supernatants to TIGIT expressed by primary human and cynomolgus monkey cells were tested by flow cytometry. For human primary cell binding assay, purified human T cells (Biological Specialty Corp.) were thawed and suspended at a concentration of 2.5×10⁶ cells/mL. […] After 72 hours, cells were removed, washed and suspended at a concentration of 0.5×10⁶ cells/mL with 10 ng/mL of IL-2 (Pepro Tech). Cells were then incubated for another 48 to 72 hours at 37° C./5% CO₂. For cynomolgus primary cell binding assay, cynomolgus PBMCs (SNBL) were thawed and suspended in a concentration between 4×10⁶ and 5×10⁶ cells/mL. […] After 72 hours, cells were removed, washed and suspended at a concentration of 0.5×10E6 cells/mL with 20 ng/mL of IL-2 (Pepro Tech). Cells were then incubated for another 48 to 72 hours at 37° C./5% CO₂. After the final incubation, cells were prepared for flow cytometry by incubation with normalized hybridoma supernatants, positive control antibodies and isotype control antibodies at 1 μg/mL final concentration. […] Cells were then run on BD FACSCanto II flow cytometer to detect anti-TIGIT antibody binding.

human TIGIT [2] = biological target: T2, human TIGIT; experiment: cell-based or functional assay
huTIGIT (PL44403) = biological target: T3, huTIGIT (PL44403); experiment: Octet, antibody on anti-huIgG Fc capture tips, huTIGIT as analyte
Description: (§2) In the case of cynoTIGIT, association was monitored for 5 min and dissociation for 5 min. […] The limit of detection of dissociation is 4e-5 based on a minimum of 5% dissociation over 20 minutes.

human TIGIT [3] = biological target: T2, human TIGIT; experiment: flow cytometry on CHO-S cells expressing human TIGIT, competitor CD112-Fc-Alexa 647, at 1 ug/mL
Description: (§3) TIGIT-binding hybridoma supernatants were then tested for their ability to block TIGIT from binding ligand. […] The 7-AAD cell viability stain was then added and the cells incubated for a further 15 minutes at 4° C., washed twice and resuspended in FACS buffer. Samples were analyzed using a BD Accuri™ Flow Cytometer and an Intellicyt HyperCyt autoSampler.

human TIGIT [4] = biological target: T2, human TIGIT; experiment: flow cytometry on CHO-S cells expressing human TIGIT, competitor huCD155-Fc-Alexa 647, at 1.7 µg/mL
Description: as §3

cynoTIGIT (PL40461) = biological target: T5, cynoTIGIT (PL40461) (cynomolgus monkey); experiment: Octet, antibody on anti-huIgG Fc capture tips, cynoTIGIT as analyte
T5 construct: Soluble protein; also called Cyno TIGIT (Octet analyte)
Description: as §2

cynomolgus TIGIT [5] = biological target: T6, cynomolgus TIGIT (cynomolgus monkey); experiment: flow cytometry on activated primary cyno PBMCs, fold over isotype control
T6 construct: Cell-surface form; also called cyno TIGIT
Description: as §1

human TIGIT [6] = biological target: T2, human TIGIT; experiment: cell-based or functional assay; remark: listed apart in the source
cynomolgus TIGIT [7] = biological target: T6, cynomolgus TIGIT; experiment: flow cytometry, 1 µg/mL on activated primary cyno PBMCs, fold over isotype control
Description: as §1

[8] = biological target: T4, human CD112R expressed on CHO K1 cells …; experiment: flow cytometry on CHO K1 cells expressing human CD112R

T6 sequence (chain, as listed by the source): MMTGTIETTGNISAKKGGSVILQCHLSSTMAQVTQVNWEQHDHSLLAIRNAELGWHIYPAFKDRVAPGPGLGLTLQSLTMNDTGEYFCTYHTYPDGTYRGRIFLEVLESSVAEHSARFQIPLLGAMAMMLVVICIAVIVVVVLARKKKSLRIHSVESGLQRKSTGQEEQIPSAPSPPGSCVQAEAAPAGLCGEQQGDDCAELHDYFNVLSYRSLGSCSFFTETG
T5 sequence (chain, as listed by the source limits assumed): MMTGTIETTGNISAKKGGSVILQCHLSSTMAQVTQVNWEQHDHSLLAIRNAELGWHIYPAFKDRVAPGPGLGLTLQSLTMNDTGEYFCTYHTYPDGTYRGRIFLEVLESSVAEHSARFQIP

| Binder | binding result (human CD155 on cells) | FACS Geomean Fold (human TIGIT [1]) [fold] | Potency [nM], Jurkat human TIGIT/IL-2-luciferase RGA, n = 1 (human TIGIT [2]) [nM] | Potency [nM], Jurkat human TIGIT/IL-2-luciferase RGA, n = 2 (human TIGIT [2]) [nM] | Kd (huTIGIT (PL44403)) [nM] | % inhibition (human TIGIT [3]) [%] | % inhibition (human TIGIT [4]) [%] | binding result (cynoTIGIT (PL40461)) | binding result (cynomolgus TIGIT [5]) | activity in the primary CD8 memory T-cell assay (IFN-γ release, CHO-K1-CD155+ cells) (human TIGIT [6]) [pM] | Kd (cynoTIGIT (PL40461)) [nM] | FACS Geomean Fold (cynomolgus TIGIT [7]) [fold] | EC50 [8] |
| --- | --- | --- | --- | --- | --- | --- | --- | --- | --- | --- | --- | --- | --- |
| B1 | binds | – | – | – | – | – | – | – | – | – | – | – | – |
| B2 | – | 11.6 | 1.9 | 2.7 | < 0.1 | 100 | 100 | no binding | no binding (tested: 1 µg/mL) | – | – | – | – |
| B3 | – | 14.4 | 4.3 | 2.1 | < 0.1 | 97 | 100 | no binding | no binding (tested: 1 µg/mL) | 160 | – | – | – |
| B4 | – | 13.7 | 3.4 | 2.5 | < 0.1 | 100 | 100 | – | – | 90 | 13 | 4.7 | – |
| B5 | – | – | – | – | – | – | – | – | – | – | – | – | 1.61 µg/mL and 12.8 nM |
